From article PMC6222107 (The Journal of Biological Chemistry, 2018) come the findings set out here.

For series [1], the system named is CN[C@@H](Cc1ccc(O)cc1)C(=O)O. In words: steady-state oxygen depletion, oxygen sensor. The class given is biochemical, Aspergillus fumigatus. The conditions noted are these: pH 7.6, 25 °C, 100 mM Tris/HCl, 150 mM NaCl, air-saturated (O2 co-substrate). The source says:
(§1) steady-state oxygen depletion, oxygen sensor on FsqB

Series [2] deals with CN[C@@H](Cc1ccc(O)c(O)c1)C(=O)O. The series can be described thus: steady-state oxygen depletion, oxygen sensor. The class given is biochemical, Aspergillus fumigatus. The note with it: pH 7.6, 25 °C, 100 mM Tris/HCl, 150 mM NaCl, air-saturated (O2 co-substrate).
Excerpt: as §1

Another series relates to CNC(Cc1cccc(O)c1)C(=O)O. In words: steady-state oxygen depletion, oxygen sensor. The conditions noted are these: pH 7.6, 25 °C, 100 mM Tris/HCl, 150 mM NaCl, air-saturated (O2 co-substrate), error ± 0.6. The class given is biochemical, Aspergillus fumigatus.
Excerpt: as §1

Series [3] relates to CNC(Cc1ccc(O)c(O)c1)C(=O)O. In words: steady-state oxygen depletion, oxygen sensor. It is filed as biochemical, Aspergillus fumigatus. The note with it: pH 7.6, 25 °C, 100 mM Tris/HCl, 150 mM NaCl, air-saturated (O2 co-substrate).
Excerpt: as §1

Series [4] concerns the molecule itself. In words: crystal structure; hexagonal crystals (P6522), one chain in the asymmetric unit; dimer with a symmetry-related molecule by a crystallographic 2-fold axis, analysed with the EBI-Pisa server; 2.6 A.

The term Km denotes the substrate concentration at which the rate is half of its maximum. By kcat is commonly meant the maximal rate divided by the concentration of active sites. Broadly, the kcat/Km is the turnover number divided by the Michaelis constant. As for FsqB (Aspergillus fumigatus Af293), the Km was determined as 2100 ± 200 µM in series [1], 270 ± 20 µM in series [2], 1600 ± 200 µM in the series on CNC(Cc1cccc(O)c1)C(=O)O and 160 ± 10 µM in series [3]. Also, the kcat in series [1] stood at 3.9 ± 0.2 s⁻¹; in series [2], 8.2 ± 0.2 s⁻¹; in the series with CNC(Cc1cccc(O)c1)C(=O)O, 3.5 ± 0.1 s⁻¹; in series [3], 8.5 ± 0.1 s⁻¹. In addition, the catalytic efficiency (kcat/Km) in series [1] came out at 1910 ± 20 M⁻¹ s⁻¹; in series [2], 30000 ± 3000 M⁻¹ s⁻¹; with CNC(Cc1cccc(O)c1)C(=O)O, 2180 ± 40 M⁻¹ s⁻¹; in series [3], 53000 ± 4000 M⁻¹ s⁻¹.

B1: FsqB (fumisoquin biosynthesis gene B product), flavoprotein of the amine oxidase family (enzyme, Aspergillus fumigatus)
chain: MSIPNSFIIVGSGVFGLSLAYALSLDDRFADKKIILVDRWNFEPPNATGSVHNPAAANADTSRVIRRDYPHGPYASLALEAMKHWRGKFGENNRYVNQRLLFSGEGSSLTTPPKALETVNYIKKAYAISCELTPGGRDAVQVLDSLDEVRAFLGNTPSHPPHLPVNKDPAARDLRGYVSNDCGWADAGASIEWLRQEVLRLGRVECVVGEVESLVYSDDQRAVKGVKLVDGKVLTAELTVIAAGARSSHILGIPKLCDVYSEFVAYIQLTKEEADELRRRQWPILVNCHRGVFAVGPDHDNCLKFGHFSYSGIVDVLREASIQVPTRPDGWEAQQKYWSDPRFAFGGEVKVSALGDVDDYENPAAQRALADYRLFLLELLGPTGLQGVDTLGLDQSDNLLNNIANRPFTRVRKCWYNDTPALDFVVDYHPSYGKTLFVATGGCDHAFKFLPIIGEKTLALILRNRGDSAVSLPAGVEPSLEELSELWRFPVELLQDN
modifications: FAD covalently bound through its 8alpha-methyl group to Cys-414
notes: FsqB of Aspergillus fumigatus, gene Afu6g03440, codon-optimized synthetic gene in pET21a; the domains described in the structure span residues 1-496; Molecular mass printed as 55 kDa; Dimer generated by a crystallographic 2-fold axis; one chain in the asymmetric unit; also called WT FsqB; Afu6g03440
Take B1: the binding result in series [4] is listed as “binds”.
